B1: 6mer-1-1065 (peptide)
peptide: KRDKAK
B2: 6mer-1-660 (peptide)
peptide: KKYHVK
B3: 6mer-1-1081 (peptide)
peptide: KRPSNK
B4: 6mer-1-1071 (peptide)
peptide: RKTKAK
B5: 6mer-1-1079 (peptide)
peptide: RKHPVK
B6: 6mer-1-1076 (peptide)
peptide: RKKEPK
B7: 6mer-1-1066 (peptide)
peptide: RKEDVK
B8: 6mer-1-1074 (peptide)
peptide: KRTCGR
B9: 6mer-1-1068 (peptide)
peptide: KRYHIR
B10: 6mer-1-1083 (peptide)
peptide: KKNAVR
B11: 6mer-1-1082 (peptide)
peptide: KKTCDR
B12: 6mer-1-1070 (peptide)
peptide: KKTCDK
B13: 6mer-1-663 (peptide)
peptide: KKFKDR
B14: 6mer-1-1075 (peptide)
peptide: KKPSVK
B15: 6mer-1-1067 (peptide)
peptide: RRKHWK
B16: 6mer-1-1077 (peptide)
peptide: RRKWGR
B17: 6mer-1-1085 (peptide)
peptide: KREAMK
B18: 6mer-1-658 (peptide)
peptide: RKKEMK
B19: 6mer-1-664 (peptide)
peptide: KRDHIK
B20: 6mer-1-1084 (peptide)
peptide: KKCCPK
B21: 6mer-1-1073 (peptide)
peptide: RKYMWK
B22: 6mer-1-1086 (peptide)
peptide: RKEANK
B23: 6mer-1-661 (peptide)
peptide: RKPKWR
B24: 6mer-1-1078 (peptide)
peptide: RRPDIK
B25: 6mer-1-1080 (peptide)
peptide: KKHNMR
B26: 6mer-1-1069 (peptide)
peptide: KKIWAR
B27: 6mer-1-659 (peptide)
peptide: KKPSKR
B28: 6mer-1-657 (peptide)
peptide: RRCTVR
B29: 6mer-1-1072 (peptide)
peptide: KKCTPR
B30: 6mer-1-662 (peptide)
peptide: KKMTER
B31: 6mer-1-665 (peptide)
peptide: KKCDGK

Target: acetylcholine receptor
Test: SPR, AchR immobilised, peptide 10 uM

Binder	Binding affinity (RU)
B1	23
B2	31
B3	23
B4	38
B5	25
B6	43
B7	23
B8	24
B9	31
B10	36
B11	37
B12	24
B13	26
B14	38
B15	38
B16	24

Binder	Binding affinity (RU)
B17	33
B18	20
B19	26
B20	25
B21	27
B22	22
B23	14
B24	25
B25	38
B26	23
B27	29
B28	17
B29	36
B30	20
B31	21
